According to US20040063188A1:

Molecular target: recombinant HPV-16 L1 VLPs (baculovirus-derived, from Sf-9S insect cells) (human papillomavirus type 16) (UniProt P03101)
Assay: ELISA; 1000 ng VLPs mixed with infected-cell supernatants; reference is the same pair with VLPs in buffer or in sucrose (FIG. 11)

Chain of UniProt P03101 (P03101 whole entry): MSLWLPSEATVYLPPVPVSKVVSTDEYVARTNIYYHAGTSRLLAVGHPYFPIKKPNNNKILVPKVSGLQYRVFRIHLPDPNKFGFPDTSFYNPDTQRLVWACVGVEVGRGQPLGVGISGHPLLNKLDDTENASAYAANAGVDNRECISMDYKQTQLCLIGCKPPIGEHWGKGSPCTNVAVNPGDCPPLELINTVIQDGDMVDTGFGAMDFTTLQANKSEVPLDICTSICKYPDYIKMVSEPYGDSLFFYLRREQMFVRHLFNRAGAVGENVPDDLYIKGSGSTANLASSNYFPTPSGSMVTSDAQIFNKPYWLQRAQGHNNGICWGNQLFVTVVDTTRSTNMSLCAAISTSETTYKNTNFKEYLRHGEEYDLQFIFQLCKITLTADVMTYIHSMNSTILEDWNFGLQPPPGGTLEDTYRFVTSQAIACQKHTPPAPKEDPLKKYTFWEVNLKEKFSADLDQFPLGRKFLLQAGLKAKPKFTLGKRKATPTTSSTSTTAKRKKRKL

## H16.V5 murine monoclonal antibody
  fold decrease in binding activity: 5 fold
